According to patent publication US20070207532:

What was measured:
[1] = target: AGT mutant of Example 1 (GST fusion) Lys125Ala, Ala127Thr, Arg128Ala, Asn157Gly, Ser159Glu (Homo sapiens) (UniProt P16455); conditions: co-purified DNA estimated by A280/A260 after purification in 50 mM phosphate, 0.1 M NaCl, 1 mM DTT
[2] = target: PGEG-hAGT (GST fusion) Asn157Gly, Ser159Glu (Homo sapiens) (UniProt P16455); test: inhibition; conditions: BG-Cy3 reaction rate with 25 ug/ml DNA
PGEG-hAGT (GST fusion) Asn157Gly, Ser159Glu (Homo sapiens), sequence (P16455 whole entry N157G/S159E, the tested form may be a part): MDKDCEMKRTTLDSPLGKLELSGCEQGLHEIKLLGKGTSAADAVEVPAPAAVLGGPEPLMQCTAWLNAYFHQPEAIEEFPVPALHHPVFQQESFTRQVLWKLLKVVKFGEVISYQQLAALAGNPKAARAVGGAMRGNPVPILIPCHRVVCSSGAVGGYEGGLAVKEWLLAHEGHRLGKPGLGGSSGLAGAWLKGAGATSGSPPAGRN

AGT mutant of Example 1 (GST fusion) Lys125Ala, Ala127Thr, Arg128Ala, Asn157Gly, Ser159Glu (Homo sapiens), sequence (P16455 whole entry K125A/A127T/R128A/N157G/S159E, the tested form may be a part): as the sequence (P16455 whole entry N157G/S159E, the tested form may be a part) above, with K125A, A127T, R128A counted along it

Row | Substance | binding signal [1] | activity (fold rate reduction) [2]
1 | co-purified E. coli DNA | > 10 fold reduced | –
2 | salmon sperm DNA | – | 5
